In the supplement of paper PMC10126150:
± gives the standard deviation of the averaged measurements.

Tested on: ATP
Assay: switch fluorescence ratio, 500 uM ATP over buffer (Cy3 cluster intensity, sum of 5 cycles each) (fold (ratio)); higher = stronger signal-on switching upon ATP binding; sequences stand for … in TCGTCGGCAGCGTCAGATGTGTATAAGAGACAGTTTTTTTTTTTTTTTTTTTTTTTTT…TC
Conditions: aptamer strand: ATP DNA aptamer (quencher-CACCTGGGGGAGTATTGCGGAGGAAGG + anchor), 100 nM annealed; ATP concentration: 500 uM
How it was run: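 Clusters carrying Cy3-labelled switching strands on a modified Illumina MiSeq flow-cell were annealed to 100 nM quencher-labelled ATP aptamer and imaged in selection buffer. They were imaged again after 15 min with 500 uM ATP at 22 °C, over five buffer/ATP cycles with NaOH stripping and re-annealing in between. For each cluster, the fluorescence ratio is the summed Cy3 intensity of the target cycles divided by that of the buffer cycles, averaged per switch-domain sequence. Clusters outside 100-1000 RFU were left out.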
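Also: ATP exposure 15 min at 22 °C before imaging.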

Sequence | switch fluorescence ratio
CGGCGTGTAT | 1 ± 0.055
ACTTATTTTT | 1 ± 0.019
TATCACGGCT | 0.969 ± 0.0099
GTTTGTCTTT | 1.02 ± 0.012
TATTTTCTCA | 1.05 ± 0.049
GCAGGGGGTA | 0.999 ± 0.027
CGCTGACGGA | 1.01 ± 0.053
CTTCGCCTTT | 1.06 ± 0.016
TTTTTTCCTC | 1.1 ± 0.2
TATTTCGTGG | 0.985 ± 0.024
CCGAGGGGGA | 1.26 ± 0.17
TACTGTGGGT | 0.9726 ± 0.0035
CGATGTTTTG | 0.969 ± 0.031
CTAATCGGTT | 0.97 ± 0.029
GAAGGCTAAT | 0.974 ± 0.022
TGGACCCGGC | 0.9858 ± 0.0054
GGGAAAAAAC | 1.013 ± 0.0064
TTTTGACGTG | 0.991 ± 0.013
CGGACTCAAA | 1.12 ± 0.025
GTGGGGCGTG | 1 ± 0.03
GGATTTAATG | 0.9523 ± 0.0057
AGGGCTCCTG | 1.0172 ± 0.00034

Sequence | switch fluorescence ratio
AAAGGCACCC | 1.05 ± 0.019
TGCTGCTACC | 1.07 ± 0.037
TTTCCAGGCA | 1.03 ± 0.0051
GTGTTTTTTG | 0.968 ± 0.019
ATGGCTTGGT | 0.99 ± 0.025
CAACCGGCCA | 1.11 ± 0.027
GGGTATTGTA | 0.999 ± 0.02
TGTAGGAGGA | 1.01 ± 0.017
GGGTCATGGG | 0.989 ± 0.033
TAACGTGGGA | 0.996 ± 0.058
TGAAAAGGTC | 0.982 ± 0.063
AGAGTAAGTG | 0.962 ± 0.025
ATCACAATTT | 1.04 ± 0.017
TTTTTTTT | 1.04 ± 0.047
AACGTGTGGG | 0.996 ± 0.1
TCATAGTCGG | 1 ± 0.024
TAAGCCTTG | 0.996 ± 0.006
TACGGCCGAG | 1 ± 0.0029
TTGACGACAC | 1.67 ± 0.45
TGGCCTTGTG | 1.02 ± 0.051
ATAGAGTGGG | 0.966 ± 0.019
GTAGAATGTG | 0.983 ± 0.03

Sequence | switch fluorescence ratio
TTGTGAGTTT | 1 ± 0.055
GCGTAAGGAG | 1.06 ± 0.096
GGACCATATC | 1.07 ± 0.017
CAGGACTTTT | 1 ± 0.0083
CCTCTGGAGG | 1.09 ± 0.013
GGGATATTAG | 0.994 ± 0.034
CCGTTAGTGG | 1.04 ± 0.042
TCGTTATGTA | 0.992 ± 0.018
AGAAGTCGGA | 1 ± 0.011
AAATGTTTCA | 0.996 ± 0.022
GGCGGACAGG | 1.038 ± 0.0062
ACAGCGGACG | 1.02 ± 0.031
AATGGTCAT | 0.991 ± 0.071
TCGTGAGGTT | 1.01 ± 0.012
GAAGTGAGGT | 1.01 ± 0.016
TGGTCTAGTG | 0.968 ± 0.043
CGGTCATATT | 0.9892 ± 0.0037
GGACCTGGTT | 0.986 ± 0.013
AGGTTGAGAT | 1.04 ± 0.041
TGCTGGAGCT | 1.06 ± 0.022
CAAGGATTAA | 1.006 ± 0.0012
TAGGGGAATC | 0.992 ± 0.02

Sequence | switch fluorescence ratio
GTTTTATCCG | 1.025 ± 0.0045
GCTTTTGGAG | 1.008 ± 0.0047
AGGGTTGGGT | 1.01 ± 0.03
CAGTGACTGT | 0.98 ± 0.034
CAATACTATA | 1.11 ± 0.067
AGCGTTTGGG | 1.0289 ± 0.001
AATTTCACTT | 1.003 ± 0.0047
AGGAGGGCTC | 1.01 ± 0.11
CTGAGAGATG | 0.9914 ± 0.0072
GAATTTGTTA | 1.026 ± 0.0059
GCGGGGTAGG | 1.015 ± 0.0099
TGGAATTAGC | 1.04 ± 0.054
CCAGGCGTAT | 1.032 ± 0.0023
AATTTCGGAT | 0.9595 ± 0.0035
TTAGCACGTC | 1.076 ± 0.0074
ATCGGAATAA | 1.4 ± 0.025
GGGAGGGGCC | 1.01 ± 0.026
GGGGGCTAGT | 0.991 ± 0.056
AGATTTTCTG | 1.01 ± 0.025
